# The supplement of paper PMC10065799, “High-throughput profiling of sequence recognition by tyrosine kinases and SH2 domains using bacterial peptide display” (eLife, 2023)
# Biological target: c-Src SH2
# Assay: SH2 binding enrichment of the phosphorylated peptide, bacterial display (enrichment ratio); higher = better substrate or ligand; peptides without Tyr show the background
# 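Throughout, for SH2 binding enrichment of the phosphorylated peptide, bacterial display: peptide library displayed on the E. coli surface as eCPX fusions, selected cells deep-sequenced, score is each peptide's frequency after selection divided by its frequency in the input.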
# 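Throughout, for phosphorylation enrichment, bacterial display: 11-residue human phosphosite peptides and single-mutation variants displayed on the E. coli surface, counted by deep sequencing, each peptide's frequency after selection divided by its frequency in the unselected input library; frequency after pTyr selection over input frequency; kinase dosed for 20-30% of maximal phosphorylation in three min.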
row,Sequence,SH2 binding enrichment
1,QSAGQYSSQGL [TNNI3K_Y788],0.369
2,SVVVHYEPPEV [TP53_Y220_P219H],1.68
3,ATLDVYNPFET [SCAMP3_Y41],0.536
4,DTCPPYVLSQG [GJB4_Y237],0.518
5,GILDVYIFLGP [GAA_Y340],0.44
6,RRERDYTNLPS [CSF1R_Y923],0.486
7,VEDPEYAVTQL [STOML2_Y124],0.483
8,GSTLSYFGLAT [P2RX7_Y343_A348T],0.595
9,QQLVAYFSKHT [SRC_Y232_A237T_YF],0.808
10,IKEFKYGIEEH [GJA1_Y137_K134E],0.457
11,GRLPEYNTRIA [CCDC151_Y542],0.482
12,KLNNEYLELNF [MME_Y497_YF],0.488
13,GDYYRSLAEVA [YWHAG_Y133_Y133S],0.699
14,SPPILYSFYLN [FCRL6_Y239_D244N],0.824
15,SHGQDYLVGNK [GSTA1_Y147],0.432
16,ETKKQYDSFTY [TMED3_Y85],1
17,SSMIDYNLLEK [MYOC_Y479_P481L],0.723
18,NACGLYYKLHN [GATA2_Y376],0.716
19,RLLRGYDQSAY [HLA-C_Y137],0.645
20,LHAALYKRKLL [TTLL5_Y542_E543K],0.517
21,SEASFYKSLNL [NGEF_Y289_YF],0.401

# Continued, values first:
row,SH2 binding enrichment,Sequence
1,0.494,VRRVGYVSGWG [HP_Y280_G276R]
2,1.97,MKTISYETLIA [DOCK10_Y1350]
3,6.19,ERPGVYTNVVE [F11_Y608]
4,0.576,HLATEYVFSDF [PANX1_Y10_Q5H]
5,0.661,NREGVYTDFAP [TGFBI_Y537_V539D]
6,1.45,KASGKYYAMKI [AKT3_Y173]
7,1.21,KLLRLYAVVTR [LYN_Y306_V303L]
8,3.43,CLAKMYYSAVD [CP_Y539]
9,0.63,DWWQEYVLNES [TGM1_Y267_R264W]
10,1.57,WHHTFYNEPRV [ACTA1_Y93_L96P]
11,0.693,VDTRAYFTSAT [MT-CO1_Y304]
12,0.589,FSSLGYPLPEG [ZSWIM4_Y87_P89L_YF]

# Biological target: Grb2 SH2 (UniProt P62993)
# Assay: as above
row,Sequence,SH2 binding enrichment
1,QSAGQYSSQGL [TNNI3K_Y788],0.944
2,SVVVHYEPPEV [TP53_Y220_P219H],0.849
3,ATLDVYNPFET [SCAMP3_Y41],0.872
4,DTCPPYVLSQG [GJB4_Y237],0.679
5,GILDVYIFLGP [GAA_Y340],0.768
6,RRERDYTNLPS [CSF1R_Y923],0.519
7,VEDPEYAVTQL [STOML2_Y124],1.11
8,GSTLSYFGLAT [P2RX7_Y343_A348T],0.893
9,QQLVAYFSKHT [SRC_Y232_A237T_YF],1.01
10,IKEFKYGIEEH [GJA1_Y137_K134E],0.856
11,GRLPEYNTRIA [CCDC151_Y542],0.949
12,KLNNEYLELNF [MME_Y497_YF],0.722
13,GDYYRSLAEVA [YWHAG_Y133_Y133S],1.02
14,SPPILYSFYLN [FCRL6_Y239_D244N],1.63
15,SHGQDYLVGNK [GSTA1_Y147],0.58
16,ETKKQYDSFTY [TMED3_Y85],0.772
17,SSMIDYNLLEK [MYOC_Y479_P481L],0.822
18,NACGLYYKLHN [GATA2_Y376],0.739
19,RLLRGYDQSAY [HLA-C_Y137],0.858
20,LHAALYKRKLL [TTLL5_Y542_E543K],0.858
21,SEASFYKSLNL [NGEF_Y289_YF],0.642

# Further lines, results first:
row,SH2 binding enrichment,Sequence
1,0.95,VRRVGYVSGWG [HP_Y280_G276R]
2,0.747,MKTISYETLIA [DOCK10_Y1350]
3,4.93,ERPGVYTNVVE [F11_Y608]
4,0.755,HLATEYVFSDF [PANX1_Y10_Q5H]
5,0.976,NREGVYTDFAP [TGFBI_Y537_V539D]
6,1.38,KASGKYYAMKI [AKT3_Y173]
7,1.12,KLLRLYAVVTR [LYN_Y306_V303L]
8,0.942,CLAKMYYSAVD [CP_Y539]
9,0.993,DWWQEYVLNES [TGM1_Y267_R264W]
10,1.4,WHHTFYNEPRV [ACTA1_Y93_L96P]
11,1.01,VDTRAYFTSAT [MT-CO1_Y304]
12,1.02,FSSLGYPLPEG [ZSWIM4_Y87_P89L_YF]

# Biological target: SHP2-C SH2
# Assay: as above
row,Sequence,SH2 binding enrichment
1,QSAGQYSSQGL [TNNI3K_Y788],0.924
2,SVVVHYEPPEV [TP53_Y220_P219H],0.757
3,ATLDVYNPFET [SCAMP3_Y41],0.524
4,DTCPPYVLSQG [GJB4_Y237],0.589
5,GILDVYIFLGP [GAA_Y340],0.79
6,RRERDYTNLPS [CSF1R_Y923],0.485
7,VEDPEYAVTQL [STOML2_Y124],0.835
8,GSTLSYFGLAT [P2RX7_Y343_A348T],0.751
9,QQLVAYFSKHT [SRC_Y232_A237T_YF],1.08
10,IKEFKYGIEEH [GJA1_Y137_K134E],0.489
11,GRLPEYNTRIA [CCDC151_Y542],0.643
12,KLNNEYLELNF [MME_Y497_YF],0.751
13,GDYYRSLAEVA [YWHAG_Y133_Y133S],0.648
14,SPPILYSFYLN [FCRL6_Y239_D244N],1.69
15,SHGQDYLVGNK [GSTA1_Y147],0.564
16,ETKKQYDSFTY [TMED3_Y85],0.714
17,SSMIDYNLLEK [MYOC_Y479_P481L],0.692
18,NACGLYYKLHN [GATA2_Y376],0.547
19,RLLRGYDQSAY [HLA-C_Y137],0.83
20,LHAALYKRKLL [TTLL5_Y542_E543K],2.26
21,SEASFYKSLNL [NGEF_Y289_YF],0.535

# Second part, the sequence after the results:
row,SH2 binding enrichment,Sequence
1,0.579,VRRVGYVSGWG [HP_Y280_G276R]
2,0.792,MKTISYETLIA [DOCK10_Y1350]
3,0.979,ERPGVYTNVVE [F11_Y608]
4,0.884,HLATEYVFSDF [PANX1_Y10_Q5H]
5,0.927,NREGVYTDFAP [TGFBI_Y537_V539D]
6,1.21,KASGKYYAMKI [AKT3_Y173]
7,2.42,KLLRLYAVVTR [LYN_Y306_V303L]
8,0.902,CLAKMYYSAVD [CP_Y539]
9,0.588,DWWQEYVLNES [TGM1_Y267_R264W]
10,1.07,WHHTFYNEPRV [ACTA1_Y93_L96P]
11,0.678,VDTRAYFTSAT [MT-CO1_Y304]
12,1.07,FSSLGYPLPEG [ZSWIM4_Y87_P89L_YF]

# Biological target: EPHB2 (UniProt P29323)
# Sequence (P29323 whole entry, looked up): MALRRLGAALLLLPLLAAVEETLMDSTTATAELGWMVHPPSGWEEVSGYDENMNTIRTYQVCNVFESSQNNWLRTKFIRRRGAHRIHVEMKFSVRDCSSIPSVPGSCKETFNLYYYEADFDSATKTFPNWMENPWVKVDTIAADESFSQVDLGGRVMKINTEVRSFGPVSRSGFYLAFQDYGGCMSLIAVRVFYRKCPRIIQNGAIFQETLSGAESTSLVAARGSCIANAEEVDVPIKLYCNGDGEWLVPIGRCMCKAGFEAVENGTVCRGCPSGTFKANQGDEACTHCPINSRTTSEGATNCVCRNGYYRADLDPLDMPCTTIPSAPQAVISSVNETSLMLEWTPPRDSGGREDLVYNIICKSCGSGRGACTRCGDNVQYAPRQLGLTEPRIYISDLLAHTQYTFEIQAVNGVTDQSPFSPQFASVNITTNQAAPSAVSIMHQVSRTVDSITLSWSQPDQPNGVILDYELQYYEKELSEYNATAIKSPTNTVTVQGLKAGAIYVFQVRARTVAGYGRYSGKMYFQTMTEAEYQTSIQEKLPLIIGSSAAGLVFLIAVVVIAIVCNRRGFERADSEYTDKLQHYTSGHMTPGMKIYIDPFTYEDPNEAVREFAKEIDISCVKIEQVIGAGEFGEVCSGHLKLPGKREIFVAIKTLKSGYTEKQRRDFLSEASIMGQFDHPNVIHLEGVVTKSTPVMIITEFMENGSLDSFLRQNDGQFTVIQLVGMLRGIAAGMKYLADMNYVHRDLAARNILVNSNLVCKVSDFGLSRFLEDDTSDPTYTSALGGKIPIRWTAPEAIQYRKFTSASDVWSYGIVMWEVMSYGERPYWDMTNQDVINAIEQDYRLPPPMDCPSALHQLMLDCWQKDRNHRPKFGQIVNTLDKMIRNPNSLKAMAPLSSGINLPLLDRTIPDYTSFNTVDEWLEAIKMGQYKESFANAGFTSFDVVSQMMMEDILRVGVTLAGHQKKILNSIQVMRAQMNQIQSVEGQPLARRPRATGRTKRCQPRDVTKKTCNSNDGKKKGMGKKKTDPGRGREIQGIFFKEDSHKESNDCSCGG
# Assay: phosphorylation enrichment, bacterial display (enrichment ratio); higher = better substrate or ligand; peptides without Tyr show the background
row,Sequence,phosphorylation enrichment
1,VRRVGYVSGWG [HP_Y280_G276R],0.423
2,QSAGQYSSQGL [TNNI3K_Y788],0.414
3,MKTISYETLIA [DOCK10_Y1350],0.474
4,SVVVHYEPPEV [TP53_Y220_P219H],0.616
5,ERPGVYTNVVE [F11_Y608],0.423
6,ATLDVYNPFET [SCAMP3_Y41],0.537
7,HLATEYVFSDF [PANX1_Y10_Q5H],1.04
8,DTCPPYVLSQG [GJB4_Y237],0.417
9,GILDVYIFLGP [GAA_Y340],0.792
10,RRERDYTNLPS [CSF1R_Y923],0.548
11,NREGVYTDFAP [TGFBI_Y537_V539D],0.624
12,VEDPEYAVTQL [STOML2_Y124],0.531
13,GSTLSYFGLAT [P2RX7_Y343_A348T],0.5
14,QQLVAYFSKHT [SRC_Y232_A237T_YF],0.724
15,IKEFKYGIEEH [GJA1_Y137_K134E],0.464
16,GRLPEYNTRIA [CCDC151_Y542],0.44
17,KASGKYYAMKI [AKT3_Y173],0.411

row,Sequence,phosphorylation enrichment
1,KLNNEYLELNF [MME_Y497_YF],0.715
2,KLLRLYAVVTR [LYN_Y306_V303L],0.594
3,GDYYRSLAEVA [YWHAG_Y133_Y133S],1.09
4,SPPILYSFYLN [FCRL6_Y239_D244N],4.36
5,CLAKMYYSAVD [CP_Y539],0.701
6,SHGQDYLVGNK [GSTA1_Y147],0.456
7,ETKKQYDSFTY [TMED3_Y85],0.493
8,DWWQEYVLNES [TGM1_Y267_R264W],0.817
9,SSMIDYNLLEK [MYOC_Y479_P481L],0.563
10,NACGLYYKLHN [GATA2_Y376],0.774
11,RLLRGYDQSAY [HLA-C_Y137],0.465
12,LHAALYKRKLL [TTLL5_Y542_E543K],0.527
13,WHHTFYNEPRV [ACTA1_Y93_L96P],0.497
14,VDTRAYFTSAT [MT-CO1_Y304],0.361
15,FSSLGYPLPEG [ZSWIM4_Y87_P89L_YF],0.446
16,SEASFYKSLNL [NGEF_Y289_YF],0.522
